For assay [1], the target named is T1, human complement C1s enzyme (activated C1s) (human, UniProt P09871 16-437; P09871 438-688).
T1 sequence 1: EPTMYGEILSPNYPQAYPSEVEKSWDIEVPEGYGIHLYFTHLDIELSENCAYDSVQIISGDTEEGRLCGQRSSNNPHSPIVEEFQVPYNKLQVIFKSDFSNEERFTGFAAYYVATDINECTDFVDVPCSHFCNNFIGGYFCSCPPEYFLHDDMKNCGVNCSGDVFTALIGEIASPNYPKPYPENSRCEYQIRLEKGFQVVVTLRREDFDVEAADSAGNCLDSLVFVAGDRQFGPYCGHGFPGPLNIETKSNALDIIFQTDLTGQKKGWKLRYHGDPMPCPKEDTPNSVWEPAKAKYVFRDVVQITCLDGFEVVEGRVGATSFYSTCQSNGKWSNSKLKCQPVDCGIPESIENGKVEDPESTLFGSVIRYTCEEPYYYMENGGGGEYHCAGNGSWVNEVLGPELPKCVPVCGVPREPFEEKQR
T1 sequence 2: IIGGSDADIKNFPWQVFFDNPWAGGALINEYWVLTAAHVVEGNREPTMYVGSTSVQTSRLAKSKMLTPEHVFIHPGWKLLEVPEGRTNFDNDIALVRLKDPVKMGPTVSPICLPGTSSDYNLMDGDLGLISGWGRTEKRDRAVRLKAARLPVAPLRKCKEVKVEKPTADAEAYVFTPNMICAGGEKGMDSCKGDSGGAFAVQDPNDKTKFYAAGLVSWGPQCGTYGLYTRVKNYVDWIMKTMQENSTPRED
Nature of the assay: cell-based or functional assay.

In assay [2] the target is T2, human complement factor Bb (human, UniProt P00751 260-764). Kind of assay: cell-based or functional assay.
Assay [3] has as its target T1, human complement C1s enzyme (activated …). Nature of the assay: BLI (Octet), biotinylated target on streptavidin sensor. From the text: (§1) Bio-layer interferometry (BLI) was used to assess the recombinant proteins' target engagement to and binding affinity for complement C1s enzyme (active C1s or “C1s” herein) and factor Bb (Bb) (Complement Technology, Tyler, TX, USA). C1s and Bb were biotinylated with EZ-Link™ Sulfo-NHS-LC-LC-Biotin (Thermo Fisher, Waltham, MA, USA) according to manufacturer instructions. Biotinylated C1s or Bb was loaded on Octet® Streptavidin (SA) Biosensors (Sartorius, Göttingen, Germany), followed by a concentration range of purified proteins. To assess dual target engagement, biotinylated active C1s or Bb was loaded onto sensors, followed by purified proteins (“first association phase”), followed by the non-captured complement target (Bb or active C1s, non-biotinylated; “second association phase”). The assays were performed at 30° C. using PBS with 0.1% Tween 20 as a diluent (FIG. 3).
(Biolayer interferometry detects binding as a change in optical thickness at a sensor tip.)

The target of assay [4] is T2, human complement factor Bb. The description is as above.
Text: as §1

T2 sequence (P00751 260-764): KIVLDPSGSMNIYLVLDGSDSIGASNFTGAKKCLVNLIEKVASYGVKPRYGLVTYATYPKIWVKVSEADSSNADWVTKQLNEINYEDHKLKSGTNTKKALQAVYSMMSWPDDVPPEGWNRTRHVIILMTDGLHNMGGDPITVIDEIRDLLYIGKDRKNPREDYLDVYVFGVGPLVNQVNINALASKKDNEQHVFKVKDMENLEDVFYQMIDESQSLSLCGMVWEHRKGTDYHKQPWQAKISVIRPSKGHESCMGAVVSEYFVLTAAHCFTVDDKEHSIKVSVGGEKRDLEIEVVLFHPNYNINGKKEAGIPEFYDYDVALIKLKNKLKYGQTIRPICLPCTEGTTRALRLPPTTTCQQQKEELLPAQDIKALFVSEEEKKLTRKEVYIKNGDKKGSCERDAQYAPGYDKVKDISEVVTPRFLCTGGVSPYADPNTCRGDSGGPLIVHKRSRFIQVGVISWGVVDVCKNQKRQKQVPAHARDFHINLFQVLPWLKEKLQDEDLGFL

B1: construct #7: αC1s scFab-(G4S)3-αBb scFab (bispecific antibody)
chain: DIVLTQSPDSLAVSLGERATISCKASQSVDYDGDSYMNWYQQKPGQPPKILIYDASNLESGIPARFSGSGSGTDFTLTISSLEPEDFAIYYCQQSNEDPWTFGGGTKVEIKRTVAAPSVFIFPPSDEQLKSGTASVVCLLNNFYPREAKVQWKVDNALQSGNSQESVTEQDSKDSTYSLSSTLTLSKADYEKHKVYACEVTHQGLSSPVTKSFNRGECGGGGSGGGGSGGGGSGGGGSGGGGSGGGGSGGGGSQVQLVQSGAEVKKPGASVKLSCTASGFNIKDDYIHWVKQAPGQGLEWIGRIDPADGHTKYAPKFQVKVTITADTSTSTAYLELSSLRSEDTAVYYCARYGYGREVFDYWGQGTTVTVSSASTKGPSVFPLAPCSRSTSESTAALGCLVKDYFPEPVTVSWNSGALTSGVHTFPAVLQSSGLYSLSSVVTVPSSSLGTKTYTCNVDHKPSNTKVDKRVGGGGSGGGGSGGGGSDIQMTQSPSTLSASVGDRVTITCKASQDVGTAVAWYQQKPGKAPKLLIYWASTRHTGVPDRFSGSGSGTDFTLTISSLQAEDFAVYFCHQHSSNPLTFGQGTKLEIKRTVAAPSVFIFPPSDEQLKSGTASVVCLLNNFYPREAKVQWKVDNALQSGNSQESVTEQDSKDSTYSLSSTLTLSKADYEKHKVYACEVTHQGLSSPVTKSFNRGECGGGGSGGGGSGGGGSGGGGSGGGGSGGGGSGGGGSEVQLVESGGGLVKPGGSLRLSCAASGFTFSNYAMSWVRQAPGKRLEWVATISNRGSYTYYPDSVKGRFTISRDNAKNSLYLQMNSLRAEDTALYYCARERPMDYWGQGTLVTVSSASTKGPSVFPLAPCSRSTSESTAALGCLVKDYFPEPVTVSWNSGALTSGVHTFPAVLQSSGLYSLSSVVTVPSSSLGTKTYTCNVDHKPSNTKVDKRV
notes: Signal peptide marked by boldface only
Broadly, the Kd is the equilibrium constant for the complex coming apart. Read a low Kd as tighter binding. Broadly, the koff is the first-order rate constant of dissociation. Lower therefore signals a long-lived complex. The term kon denotes the rate constant with which the complex forms. The low end stands for slower complex formation, the high end for faster complex formation. Consider B1, for which the “IC50 CP (Wieslab)” value in assay [1] worked out at 45.9 nM. Moreover, the “IC50 AP (Wieslab)” value in assay [2] worked out at 570 nM. For the same molecule, in assay [3], binding was put at a Kd of 1.8 nM, the koff was found to be 0.00047 s⁻¹ and the on-rate (kon) came out at 260000 M⁻¹ s⁻¹. In assay [4], this molecule returned a Kd of 9.3 nM, a dissociation rate constant (koff) of 0.00054 s⁻¹ and a kon of 60000 M⁻¹ s⁻¹.

B2: construct #11: αC1s scFab-(G4S)3-αBb scFab-CM (bispecific antibody)
chain: DIVLTQSPDSLAVSLGERATISCKASQSVDYDGDSYMNWYQEKPGQPPKILIYDASNLESGIPARFSGSGSGTDFTLTISSLEPEDFAIYYCQQSNEDPWTFGGGTKVEIKRTVAAPSVFIFPPSDEQLKSGTASVVCLLNNFYPREAKVQWKVDNALQSGNSQESVTEQDSKDSTYSLSSTLTLSKADYEKHKVYACEVTHQGLSSPVTKSFNRGECGGGGSGGGGSGGGGSGGGGSGGGGSGGGGSGGGGSQVQLVQSGAEVKKPGASVKLSCTASGFNIKDDYIHWVKKAPGQGLEWIGRIDPADGHTKYAPKFQVKVTITADTSTSTAYLELSSLRSEDTAVYYCARYGYGREVFDYWGQGTTVTVSSASTKGPSVFPLAPCSRSTSESTAALGCLVKDYFPEPVTVSWNSGALTSGVHTFPAVLQSSGLYSLSSVVTVPSSSLGTKTYTCNVDHKPSNTKVDKRVGGGGSGGGGSGGGGSDIQMTQSPSTLSASVGDRVTITCKASQDVGTAVAWYQKKPGKAPKLLIYWASTRHTGVPDRFSGSGSGTDFTLTISSLQAEDFAVYFCHQHSSNPLTFGQGTKLEIKRTVAAPAVFIFPPSDEQLKSGTASVVCLLKNFYPREAKVQWKVDNALQSGNSQESVTEQDSKDSTYSLSSTLTLSKADYEKHKVYACEVTHQGLSSPVTKSFNRGECGGGGSGGGGSGGGGSGGGGSGGGGSGGGGSGGGGSEVQLVESGGGLVKPGGSLRLSCAASGFTFSNYAMSWVREAPGKRLEWVATISNRGSYTYYPDSVKGRFTISRDNAKNSLYLQMNSLRAEDTALYYCARERPMDYWGQGTLVTVSSASTKGPSVFPLAPCSRSTSESTAALGCLVKDYFPEPVTVSWNSGALTSGVHTFPAVLQSSGLYSLSSVVEVPSSSLGTKTYTCNVDHKPSNTKVDKRV
notes: Residues 1-20 were left out as the signal peptide, which is marked by boldface only
Take B2: in assay [1], the “IC50 CP (Wieslab)” value is 49.7 nM. In addition, the “IC50 AP (Wieslab); curve not saturated, estimated” value in assay [2] was approximately 1000 nM. In assay [3], this molecule yielded a Kd of 2.7 nM, a koff of 0.00058 s⁻¹ and a kon of 210000 M⁻¹ s⁻¹. In assay [4], the Kd stood at 8.8 nM, the koff was 0.00051 s⁻¹ and the kon came out at 60000 M⁻¹ s⁻¹.

B3: construct #15: αC1s scFab-(G4S)3-αBb scFv (bispecific antibody)
chain: DIVLTQSPDSLAVSLGERATISCKASQSVDYDGDSYMNWYQQKPGQPPKILIYDASNLESGIPARFSGSGSGTDFTLTISSLEPEDFAIYYCQQSNEDPWTFGGGTKVEIKRTVAAPSVFIFPPSDEQLKSGTASVVCLLNNFYPREAKVQWKVDNALQSGNSQESVTEQDSKDSTYSLSSTLTLSKADYEKHKVYACEVTHQGLSSPVTKSFNRGECGGGGSGGGGSGGGGSGGGGSGGGGSGGGGSGGGGSQVQLVQSGAEVKKPGASVKLSCTASGFNIKDDYIHWVKQAPGQGLEWIGRIDPADGHTKYAPKFQVKVTITADTSTSTAYLELSSLRSEDTAVYYCARYGYGREVFDYWGQGTTVTVSSASTKGPSVFPLAPCSRSTSESTAALGCLVKDYFPEPVTVSWNSGALTSGVHTFPAVLQSSGLYSLSSVVTVPSSSLGTKTYTCNVDHKPSNTKVDKRVGGGGSGGGGSGGGGSEVQLVESGGGLVKPGGSLRLSCAASGFTFSNYAMSWVRQAPGKRLEWVATISNRGSYTYYPDSVKGRFTISRDNAKNSLYLQMNSLRAEDTALYYCARERPMDYWGQGTLVTVSSGGGGSGGGGSGGGGSDIQMTQSPSTLSASVGDRVTITCKASQDVGTAVAWYQQKPGKAPKLLIYWASTRHTGVPDRFSGSGSGTDFTLTISSLQAEDFAVYFCHQHSSNPLTFGQGTKLEIK
notes: as for B2
B3: in assay [1], the “IC50 CP (Wieslab)” value was 34.7 nM. In assay [2], the “IC50 AP (Wieslab)” value is 405 nM. In addition, in assay [3], the affinity, expressed as Kd, was 1.6 nM; the koff was determined as 0.00057 s⁻¹; the kon is 370000 M⁻¹ s⁻¹. Further, in assay [4], the affinity, expressed as Kd, was 3.9 nM; the koff was 0.00045 s⁻¹; the kon worked out at 120000 M⁻¹ s⁻¹.

B4: construct #16: αC1s scFab-(G4S)3-αBb scFv-CM (bispecific antibody)
chain: DIVLTQSPDSLAVSLGERATISCKASQSVDYDGDSYMNWYQEKPGQPPKILIYDASNLESGIPARFSGSGSGTDFTLTISSLEPEDFAIYYCQQSNEDPWTFGGGTKVEIKRTVAAPSVFIFPPSDEQLKSGTASVVCLLNNFYPREAKVQWKVDNALQSGNSQESVTEQDSKDSTYSLSSTLTLSKADYEKHKVYACEVTHQGLSSPVTKSFNRGECGGGGSGGGGSGGGGSGGGGSGGGGSGGGGSGGGGSQVQLVQSGAEVKKPGASVKLSCTASGFNIKDDYIHWVKKAPGQGLEWIGRIDPADGHTKYAPKFQVKVTITADTSTSTAYLELSSLRSEDTAVYYCARYGYGREVFDYWGQGTTVTVSSASTKGPSVFPLAPCSRSTSESTAALGCLVKDYFPEPVTVSWNSGALTSGVHTFPAVLQSSGLYSLSSVVTVPSSSLGTKTYTCNVDHKPSNTKVDKRVGGGGSGGGGSGGGGSEVQLVESGGGLVKPGGSLRLSCAASGFTFSNYAMSWVREAPGKRLEWVATISNRGSYTYYPDSVKGRFTISRDNAKNSLYLQMNSLRAEDTALYYCARERPMDYWGQGTLVTVSSGGGGSGGGGSGGGGSDIQMTQSPSTLSASVGDRVTITCKASQDVGTAVAWYQKKPGKAPKLLIYWASTRHTGVPDRFSGSGSGTDFTLTISSLQAEDFAVYFCHQHSSNPLTFGQGTKLEIK
notes: as for B2
With B4, the “IC50 CP (Wieslab)” value in assay [1] amounted to 35.4 nM. Also, the “IC50 AP (Wieslab)” value in assay [2] came out at 586 nM. In assay [3], this molecule registered a dissociation constant (Kd) of 1.4 nM, a dissociation rate constant (koff) of 0.00051 s⁻¹ and a kon of 360000 M⁻¹ s⁻¹. In assay [4], this molecule showed a Kd of 2.5 nM, a koff of 0.00023 s⁻¹ and a kon of 90000 M⁻¹ s⁻¹.

The record behind these values is patent US20240401082A1 (Sanofi, published 2024).
